Test results as given in patent US20220169720.

Tests used:
[1] = test system: Rubicon (RUN domain protein as Beclin-1 interacting and cysteine-rich containing), wild-type
[2] = test system: Rubicon mutant's 117-189 amino acids (phosphor-null mutants, single serine/threonine substituted with alanine)

Sequence of Rubicon (RUN domain protein as Beclin-1 interacting and cysteine-rich containing), wild-type (chain, as listed by the source): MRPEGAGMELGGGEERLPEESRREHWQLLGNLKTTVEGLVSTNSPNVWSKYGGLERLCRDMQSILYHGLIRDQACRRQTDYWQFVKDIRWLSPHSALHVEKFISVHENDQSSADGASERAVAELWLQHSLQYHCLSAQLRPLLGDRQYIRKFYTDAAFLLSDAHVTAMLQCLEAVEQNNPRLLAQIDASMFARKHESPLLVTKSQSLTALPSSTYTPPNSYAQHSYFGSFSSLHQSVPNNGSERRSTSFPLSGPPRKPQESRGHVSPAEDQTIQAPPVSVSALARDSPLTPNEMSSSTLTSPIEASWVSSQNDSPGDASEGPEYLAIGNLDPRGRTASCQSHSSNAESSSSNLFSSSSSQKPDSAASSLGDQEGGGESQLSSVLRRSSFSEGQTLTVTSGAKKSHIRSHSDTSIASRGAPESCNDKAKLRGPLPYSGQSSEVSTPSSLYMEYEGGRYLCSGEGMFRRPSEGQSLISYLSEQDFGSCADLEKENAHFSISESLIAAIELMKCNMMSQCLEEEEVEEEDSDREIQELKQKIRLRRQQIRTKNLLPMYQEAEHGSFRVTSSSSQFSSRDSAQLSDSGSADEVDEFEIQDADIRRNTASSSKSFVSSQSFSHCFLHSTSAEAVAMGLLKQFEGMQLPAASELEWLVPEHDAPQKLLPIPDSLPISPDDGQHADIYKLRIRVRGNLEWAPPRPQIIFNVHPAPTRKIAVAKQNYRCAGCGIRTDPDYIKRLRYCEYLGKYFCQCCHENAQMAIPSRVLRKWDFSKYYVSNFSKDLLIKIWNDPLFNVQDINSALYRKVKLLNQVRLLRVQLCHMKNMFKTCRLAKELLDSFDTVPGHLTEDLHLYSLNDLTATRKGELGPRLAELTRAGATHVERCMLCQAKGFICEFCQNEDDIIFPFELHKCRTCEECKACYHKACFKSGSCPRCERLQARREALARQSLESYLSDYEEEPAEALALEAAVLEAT

| Substance | pT166-Rubicon by ELISA in human neurons transiently over-expressing mutant LRRK2-G2019S [1] | extent of Rubicon phosphorylation by LRRK2 kinase (kinase assay with wild-type or phosphor-null mutant Rubicon as substrate) [1] | pT166-Rubicon by ELISA in human neurons transiently over-expressing wild-type (WT) LRRK2 [1] | pT166-Rubicon by ELISA in human neurons with endogenous LRRK2 knocked down [1] | amount of generated ADP as a by-product of LRRK2 kinase activity [2] |
| --- | --- | --- | --- | --- | --- |
| mutant LRRK2-G2019S | 12% and 26% increase in pT166-Rubicon respectively compared to control | – | – | – | – |
| Leucine-rich repeat kinase 2 (LRRK2), wild-type | – | determined T166 and S189 as the consensus LRRK2-specific phosphosites | 12% and 26% increase in pT166-Rubicon respectively compared to control | 32.4% decrease in pT166-Rubicon compared to control | Rubicon mutant's 117-189 amino acids significantly decreased LRRK2 kinase activity |
